Reference: patent publication US20050118638A1 (RSR, published 2005)
Substitutions are numbered along the chain they refer to.

B1: 16E5 Fab (Fab, V domains shown)
VH: DVQLVQSGPELVKPGASVKMSCKASGYSFTGYNMHWVKQSHGKSLEWIGYIDPYNGATSYNQKFEDKATLTVDKSSSTAYMQLNSLTSEDSAVYYCARRWDWDPYAMDYWGQGTSVTVSS
VL: DILLTQSPAILSVSPGERVSFSCRASQSIGTSIHWYQQRTNGSPRLLIKYASESISGIFSRFSGSGSGTDFTLTINSVESEDIADYYCQQSNRWPLTFGAGTKLELKR
notes: papain Fab of the mouse MAb
B2: 14D3 Fab (Fab, V domains shown)
VH: B1 VH with L4M, V5Q, S7P, V18L, N55S, D66G
VL: B1 VL with D1N, L4M, S22A, F59P, T74S, S91T
notes: Fab of the mouse MAb
B3: 17D2 Fab (Fab, V domains shown)
VH: B1 VH with L4I, V5Q, G31A, S40T, N55S, N61H, E65K, D66G, Q82R
VL: B1 VL with D1S, I2V, L3E, L4M, T5S, V19I, E53A, F59P, T74S, R93S
notes: Fab of the mouse MAb
B4: 16E5 IgG (antibody, V domains shown, not shown: a dimerising Fc or GST)
VH: B1 VH
VL: B1 VL
notes: mouse monoclonal IgG; also called MAb 16E5
B5: 17D2 IgG (antibody, V domains shown, not shown: a dimerising Fc or GST)
VH: B1 VH with L4I, V5Q, G31A, S40T, N55S, N61H, E65K, D66G, Q82R
VL: B1 VL with D1S, I2V, L3E, L4M, T5S, V19I, E53A, F59P, T74S, R93S
notes: mouse monoclonal IgG
B6: 14D3 IgG (antibody, V domains shown, not shown: a dimerising Fc or GST)
VH: B1 VH with L4M, V5Q, S7P, V18L, N55S, D66G
VL: B1 VL with D1N, L4M, S22A, F59P, T74S, S91T
notes: mouse monoclonal IgG; also called MAb 14D3
B7: 4D7 IgG (antibody, V domains shown, not shown: a dimerising Fc or GST)
VH: DVQLKHSGPELVKPGASMKISCKASGYSFTGYTMNWVKQSHGKNLEWIGLINPYTGGTNYNQKFKGKAKLTVDKSSSTAFMELLSLTSEDSAVYYCARDGNLDYWGQGTTLTVSS
VL: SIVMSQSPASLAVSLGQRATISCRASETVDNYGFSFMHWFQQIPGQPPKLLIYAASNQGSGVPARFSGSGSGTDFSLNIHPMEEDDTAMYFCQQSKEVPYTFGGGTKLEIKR
notes: mouse monoclonal IgG; also called Mab 4D7
B8: 3C7 IgG (antibody, V domains shown, not shown: a dimerising Fc or GST)
VH: B7 VH with E46D, T55N, N59S, N61D, K69T, F80Y, N101L, L102M, T110S, L111V
VL: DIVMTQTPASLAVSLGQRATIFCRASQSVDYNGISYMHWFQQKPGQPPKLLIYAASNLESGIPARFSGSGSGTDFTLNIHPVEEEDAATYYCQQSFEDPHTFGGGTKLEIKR
notes: mouse monoclonal IgG
B9: 2B4 IgG (antibody, V domains shown, not shown: a dimerising Fc or GST)
VH: DVQLQQSGTVLARPGASVRMSCKASGYSFTRYWIHWLKQRPGQGLEWIGAIFPGNRDTSYNQRFKGKAEVTAVTSASTAYLDLSSLTNEDSAVYYCTRWPYYGSIYVNFDYWGQGTTLTVSS
VL: DIVMTQSPLSLPVSLGDQASISCRTSQNLVHRNGNTYLHWYLQKPGQSPKLLIYKISNRFSGVPDRFSGSGSGTDFTLKISRVEAEDLGVYFCSQGTHVPPTFGGGTKLEIKR
notes: mouse monoclonal IgG; also called 2B4 MAb
B10: 3B3 IgG (antibody, V domains shown)
VH: DVQLQQPGAELVKPGASVKLSCTTSGVNIKDTYMHWMKQRPEQGLEWIGRIDPANGNTKYDPKFRGKATITADTSSNTVYVQLRSLTSEDTAVYYCAYDGYWGQGTLVTVSA
VL: NIVMTQTPASLAVSLGQRATISCRASESVDSYGNNFMHWYQQKPGQSPRLLIYRASNLESGIPARFSGSGSRTDFTLTTNPVEADDVATYYCQQSHKDPLTFGAGTKLELK
B11: 3B3 Fab (Fab, V domains shown)
VH: B10 VH
VL: NIVMTQTPASLAVSLGQRATISCRASESVDSYGNNFMHWYQQKPGQSPRLLIYRASNLESGIPARFSGSGSRTDFTLTTNPVEADDVATYYCQQSHKDPLTFGAGTKLELKR

target: T1, TSH receptor (detergent solubilised TSH receptor preparation) (UniProt P16473 21-764, limits assumed); experiment: 125I-TSH, TSHR coated tubes; tested at 10 µg/ml
T1 construct: In some assays captured or labelled through MAb 4E31 F(ab)2; also called thyrotrophin receptor
T1 sequence (P16473 21-764 limits assumed): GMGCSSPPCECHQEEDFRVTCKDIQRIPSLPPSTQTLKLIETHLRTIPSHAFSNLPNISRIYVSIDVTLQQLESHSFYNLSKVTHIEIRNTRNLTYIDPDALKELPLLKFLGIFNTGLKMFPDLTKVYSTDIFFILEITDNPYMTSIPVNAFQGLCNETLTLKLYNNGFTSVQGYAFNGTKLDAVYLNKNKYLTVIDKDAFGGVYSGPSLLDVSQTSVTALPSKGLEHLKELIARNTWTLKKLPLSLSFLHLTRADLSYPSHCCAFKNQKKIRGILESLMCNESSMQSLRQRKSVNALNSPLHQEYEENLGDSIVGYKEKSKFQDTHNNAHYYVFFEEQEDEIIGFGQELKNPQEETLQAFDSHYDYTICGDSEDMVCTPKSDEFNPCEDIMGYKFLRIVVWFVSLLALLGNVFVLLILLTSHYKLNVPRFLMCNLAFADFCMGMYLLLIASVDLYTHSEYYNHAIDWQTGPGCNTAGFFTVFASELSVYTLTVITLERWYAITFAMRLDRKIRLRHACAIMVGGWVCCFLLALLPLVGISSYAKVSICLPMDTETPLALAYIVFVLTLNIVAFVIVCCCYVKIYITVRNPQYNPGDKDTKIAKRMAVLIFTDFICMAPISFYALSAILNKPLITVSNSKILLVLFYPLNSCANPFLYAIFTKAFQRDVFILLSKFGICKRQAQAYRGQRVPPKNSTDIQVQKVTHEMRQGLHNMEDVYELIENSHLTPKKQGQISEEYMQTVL
Method: (§1) In particular the MAb 4E31 reactive with the TSHR C terminus (10 μg/mL F(ab)₂ preparation in 0.1 M Na₂CO₃ pH 9.2) was added to plastic tubes (Nune Maxisorp, 200 μL per tube) and coating allowed to proceed overnight 4° C. After washing and post-coating (10 mg/mL bovine serum albumin) the tubes were washed again with assay buffer (10 mM Tris-HCl pH 7.8, 50 mM NaCl, 1 mg/mL bovine serum albumin, 0.1% Triton X-100). 200 μL of a detergent solubilised TSHR preparation was then added and incubated overnight at 4° C. followed by aspiration and washing steps. Thereafter, 20 μL of “start” buffer (10 mM Tris-HCl pH 7.8, 50 mM NaCl, bovine serum albumin 1 mg/mL, 6 mM NaN₃, 1% Triton X-100) was added to the TSHR coated tubes followed by 100 μL of purified MAb IgG or patient sera and incubated at room temperature for 2 hours with gentle shaking. […] The tubes were then washed twice with 1 mL of assay buffer, aspirated and counted in a gamma counter.

B1 was tested. Which “% inhibition of TSH binding” value did it give?
The value was 53%.

For B2, which “% inhibition of TSH binding” value is on record?
The value was 64%.

How did the “% inhibition of TSH binding” value turn out when B3 was run?
The value was 45%.

target: T1, TSH receptor (detergent solubilised TSH …); experiment: solubilised TSHR, PEG method; IgG 100 µg/ml; competitor 125I-16E5 Fab

Which “% inhibition of 125I-16E5 Fab binding” value does the source give for B4 here?
Its value is 70.4%.

For B5, which “% inhibition of 125I-16E5 Fab binding” value is on record?
The value was 69.2%.

Which “% inhibition of 125I-16E5 Fab binding” value does the source give for B6 here?
The value was 67.6%.

With B7 as the binder, how does the “% inhibition of 125I-16E5 Fab binding” value read?
Its value is 24.2%.

Which “% inhibition of 125I-16E5 Fab binding” value does the source give for B8 here?
Its value is 17%.

target: T1, TSH receptor (detergent solubilised TSH …); experiment: 125I-TSH, TSHR coated tubes; 2 µg/ml
Method: as §1

B9 was tested. Which “% inhibition of TSH binding” value did it give?
The value was 69.9%.

With B4 as the binder, how does the “% inhibition of TSH binding” value read?
The value was 73.6%.

Which “% inhibition of TSH binding” value does the source give for B5 here?
Its value is 73.7%.

For B6, which “% inhibition of TSH binding” value is on record?
The value was 61%.

target: human TSHR expressed on Chinese hamster ovary (CHO) cells (human, UniProt P16473 21-764); experiment: cell-based or functional assay
Sequence (P16473 21-764): as the sequence (P16473 21-764 limits assumed) above

For B9, which “Stimulation (%) of cyclic AMP, CHO cells expressing human TSHR; 20 µg/ml, diluted 1:10” value (from here on “Stimulation (%) of cyclic AMP … diluted 1:10”) is on record?
Its value is 111%.

With B4 as the binder, how does the “Stimulation (%) of cyclic AMP … diluted 1:10” value read?
The value was 850%.

How did the “Stimulation (%) of cyclic AMP … diluted 1:10” value turn out when B6 was run?
Its value is 908%.

target: T1, TSH receptor (detergent solubilised TSH …); experiment: 125I-TSH, TSHR coated tubes; 20 µg/ml
Method: as §1

Which “% inhibition of TSH binding” value does the source give for B4 here?
The value was 83.3%.

For B5, which “% inhibition of TSH binding” value is on record?
Its value is 81.3%.

How did the “% inhibition of TSH binding” value turn out when B6 was run?
The value was 76.4%.

target: TSH receptor of isolated porcine thyroid cells (porcine, UniProt Q8SPP9 22-764); experiment: cell-based or functional assay
Sequence (Q8SPP9 22-764): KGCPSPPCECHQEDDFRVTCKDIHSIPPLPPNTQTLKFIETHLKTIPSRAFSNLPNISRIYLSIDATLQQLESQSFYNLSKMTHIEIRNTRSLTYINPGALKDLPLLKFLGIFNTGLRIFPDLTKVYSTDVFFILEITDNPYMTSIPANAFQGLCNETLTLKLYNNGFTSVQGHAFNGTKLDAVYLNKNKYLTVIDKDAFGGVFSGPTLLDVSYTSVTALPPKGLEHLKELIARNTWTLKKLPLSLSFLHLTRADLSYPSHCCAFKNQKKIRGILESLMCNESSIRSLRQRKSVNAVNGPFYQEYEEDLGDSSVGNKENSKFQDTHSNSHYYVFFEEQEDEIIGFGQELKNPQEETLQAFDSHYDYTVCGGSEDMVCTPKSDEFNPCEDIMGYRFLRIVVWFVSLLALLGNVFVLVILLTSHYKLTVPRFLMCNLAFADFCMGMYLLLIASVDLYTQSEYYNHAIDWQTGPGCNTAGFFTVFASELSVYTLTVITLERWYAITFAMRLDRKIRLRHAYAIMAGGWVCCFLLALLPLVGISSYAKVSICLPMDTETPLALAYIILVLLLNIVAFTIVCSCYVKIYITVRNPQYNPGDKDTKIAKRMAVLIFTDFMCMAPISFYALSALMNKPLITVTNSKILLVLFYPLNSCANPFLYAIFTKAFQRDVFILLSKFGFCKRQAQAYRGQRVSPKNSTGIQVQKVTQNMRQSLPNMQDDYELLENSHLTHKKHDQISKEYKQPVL

How did the “Stimulation (%) of cyclic AMP, isolated porcine thyroid cells; 2 µg/ml” value (“Stimulation (%) of cyclic AMP … 2 µg/ml” for short) turn out when B9 was run?
The value was 116%.

What about the “Stimulation (%) of cyclic AMP, isolated porcine thyroid cells; 20 µg/ml” value of the same binder?
Its value is 100%.

How did the “Stimulation (%) of cyclic AMP … 2 µg/ml” value turn out when B4 was run?
Its value is 269%.

What about the “Stimulation (%) of cyclic AMP, isolated porcine thyroid cells; 20 µg/ml” value of the same binder?
Its value is 332%.

And the “Stimulation (%) of cyclic AMP, isolated porcine thyroid cells; 200 µg/ml” value (from here on “Stimulation (%) of cyclic AMP … 200 µg/ml”)?
Its value is 466%.

B1 was tested. Which “Stimulation (%) of cyclic AMP … 200 µg/ml” value did it give?
Its value is 425%.

B2 was tested. Which “Stimulation (%) of cyclic AMP … 200 µg/ml” value did it give?
The value was 648%.

For B5, which “Stimulation (%) of cyclic AMP … 2 µg/ml” value is on record?
Its value is 134%.

And the “Stimulation (%) of cyclic AMP, isolated porcine thyroid cells; 20 µg/ml” value?
Its value is 207%.

And the “Stimulation (%) of cyclic AMP … 200 µg/ml” value?
The value was 377%.

With B3 as the binder, how does the “Stimulation (%) of cyclic AMP … 200 µg/ml” value read?
The value was 274%.

B6 was tested. Which “Stimulation (%) of cyclic AMP … 2 µg/ml” value did it give?
Its value is 323%.

What about the “Stimulation (%) of cyclic AMP, isolated porcine thyroid cells; 20 µg/ml” value of the same binder?
Its value is 351%.

What about the “Stimulation (%) of cyclic AMP … 200 µg/ml” value of the same binder?
The value was 557%.

What does the source list for B10?
Stimulation (%) of cyclic AMP, isolated porcine thyroid cells; 20 µg/ml: 37%; Stimulation (%) of cyclic AMP, isolated porcine thyroid cells; 200 µg/ml: 34%

How did the “Stimulation (%) of cyclic AMP … 200 µg/ml” value turn out when B11 was run?
The value was 42%.

What does the source list for B7?
Stimulation (%) of cyclic AMP, isolated porcine thyroid cells; 20 µg/ml: 31%; Stimulation (%) of cyclic AMP, isolated porcine thyroid cells; 200 µg/ml: 259%
